The results in this text go back to patent US20130302353A1 (published 2013).

In assay [1] the target is T1, IRSMPSHPDRA (SEQ ID NO:33) (human).
T1 construct: the peptides on the cards were longer and mostly CLIPS-constrained
T1 peptide: IRSMPSHPDRA
The experiment in a line: Pepscan ELISA on linear and CLIPS peptides. On the procedure: (§1) The synthetic linear and CLIPS peptides were synthesized and screened using credit-card format mini PEPSCAN cards (455-well plate with 3 ul wells) as described by Slootstra et al. (Slootstra et al., 1996, Mol. Diversity. 1, 87-96) and Timmerman et al. (Timmerman et al., 2007, J. Mol. Recognit. 20, 283-299). The binding of antibodies (hAPRIL.01A and hAPRIL.03A) to each peptide was tested in a PEPSCAN-based enzyme-linked immuno assay (ELISA). The 455-well creditcard-format polypropylene cards, containing the covalently linked peptides, were incubated with sample (for example 1 ug/ml antibody diluted in a PBS solution containing 5% horse serum (vol/vol) and 5% ovalbumin (weight/vol)) and 1% Tween 80 (4° C., overnight). After washing the peptides were incubated with an anti-antibody peroxidase (dilution 1/1000, for example rabbit anti-mouse peroxidase, Southern Biotech) (1 hour, 25° C.), and subsequently, after washing the peroxidase substrate 2,2′-azino-di-3-ethylbenzthiazoline sulfonate (ABTS) and […] 3% H2O2 were added. After 1 hour the color development was measured. The color development of the ELISA was quantified with a CCD-camera and an image processing system. […]
(§2) Each antibody was tested on all 4225 peptides and their binding values were ranked. […] For hAPRIL.01A it was determined that it binds to […] […]

Assay [2] has as its target T2, FLAG-hAPRIL captured by BCMA-Fc (human, UniProt O75888 110-250; Q02223 1-54, limits assumed).
T2 construct: also called APRIL-BCMA complex; receptor-ligand complex; not shown: FLAG tag; Fc of human IgG1
T2 sequence (looked up) 1: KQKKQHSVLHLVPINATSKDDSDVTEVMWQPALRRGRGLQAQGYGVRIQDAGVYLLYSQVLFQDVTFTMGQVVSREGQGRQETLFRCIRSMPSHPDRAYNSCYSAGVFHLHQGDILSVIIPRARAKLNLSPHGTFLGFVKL
T2 sequence (looked up) 2: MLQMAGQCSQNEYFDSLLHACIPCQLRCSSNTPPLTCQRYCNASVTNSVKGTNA
The experiment in a line: ELISA, FLAG-hAPRIL captured by coated BCMA-Fc. On the procedure:
Protein-based ELISA experiments using purified hAPRIL.01A and hAPRIL.03A antibodies were performed to determine apparent binding affinities (reported as EC₅₀ values). Binding was compared to mouse anti-hAPRIL IgG1 Aprily-5 (Alexis). Maxisorp 96-well immunoplates (Nunc) were coated with either rabbit anti-FLAG polyclonal antibody (Sigma) or BCMA-Fc (R&D Systems) at 50 ng/well in PBS overnight at 4° C. and blocked with 10% Goat serum/PBST for 1 hour at RT. Plates were washed with PBST 3 times and incubated with supernatant (1:4 in PBS) containing FLAG-hAPRIL for 1 hour at RT. Plates were again washed with PBST 3 times and incubated with hAPRIL.01A, hAPRIL.03A, and Aprily-5 antibodies (10 μg/ml high test with 10-fold dilutions in triplicates) for 1 h at RT. After three washes with PBST, bound antibodies were detected with goat anti-mouse IgG-HRP (1:2,000) (Southern Biotechnology) for 1 hour at RT. Plate was washed three times with PBST, and APRIL-reactivity was visualized with OptiEIA TMB substrate (Becton Dickinson). The concentration for half-maximal binding is reported as a measure of relative binding affinity. When FLAG-hAPRIL was captured by the anti-FLAG antibody (FIG. 2A), EC₅₀ values for hAPRIL.01A, hAPRIL.03A and Aprily-5 were calculated as 2.2, 1.4, and 1.7 nM, respectively. […] In contrast, binding of hAPRIL.03A to the APRIL-BCMA complex was observed.

Assay [3] addresses T3, VSREGQGRQ (SEQ ID NO:38) motif (human).
T3 construct: the peptides on the cards were longer and mostly CLIPS-constrained; also called core region EGQ
T3 peptide: VSREGQGRQ
The assay can be described thus: Pepscan ELISA on linear and CLIPS peptides. On the procedure: as §1, §2

B1: hAPRIL.01A (antibody, IgG1, V domains shown)
VH: EVQLQQSGPELVKPGASVKMSCKASGYTFTSYVMHWVKQKPGQGLEWIGYINPYNDAPKYNEKFKGKATVTSDKSSGTAYMELSSLTSEDSAVYYCARGLGYALYYAMDYWGQGTSVTVSS
VL: DIVMTQSQKFKSTSVGDRVSVTCKASQNVGNNVAWYQQKAGQSPKALISSASNRDSGVPDRFTGSGSGTDFTLTISNVQSEDLADYFCQQYNIYPFTFGSGTELEIK
notes: Mouse antibody from a hybridoma; also called hAPRIL.01A hybridoma supernatant; purified hAPRIL.01A
B1: the binding result is reported as “binds” in assay [1] and “no binding (tested: 10 µg/ml high test)” in assay [2].

B2: hAPRIL.03A (antibody, IgG1, V domains shown)
VH: QVTLKESGPGILQPSQTLSLTCSFSGFSLSTYGIGVGWIRQPSGKGLEWLAHIWWNDNKYYNTALKSRLTISKDTSNNQVFLKIASVDTADTATYYCARIAGGNYDYAMDHWGQGTSVTVSS
VL: QIVLTQSPAIMSTSPGEKVTLTCSASSSVSSTYLYWYQQKPGSSPKLWIYSTSNLASGVPARFSGSGSGTSYSLTISSMEAEDAASYFCHQWSSYPPTFGAGTKLELK
notes: Mouse antibody from a hybridoma; also called hAPRIL.03A hybridoma supernatant; purified hAPRIL.03A
As for B2, in assay [3], the binding result is listed as “binds”.
